# According to paper PMC9491731 (PLoS Genetics, 2022):
# Biological target: T1, WT CcdB (Controller of Cell Death protein B) (Escherichia coli (F-plasmid), UniProt P62554)
# T1 construct: also called CcdB-WT
# Experiment: thermal shift assay (Sypro orange)
# Settings: both partners purified
binder,measurement,value
KAENQEGMAEVARFIEMNGSFADENRDW [CcdA peptide (45–72)],binding result,binds
